According to US20260167706A1 (ADRENOMED, published 2026):
Where two headings read alike, the source gives them in different places. Where no end group is shown, it is not given here.

Experiments:
[1] = biological target: T1, human recombinant adrenomedullin receptor (CRLR + RAMP3) (human); assay: cell-based or functional assay
[2] = biological target: T1, human recombinant adrenomedullin …; assay: cell-based or functional assay; remark: listed apart in the source

T1 sequence (Q16602 whole entry, chain 1 of 2): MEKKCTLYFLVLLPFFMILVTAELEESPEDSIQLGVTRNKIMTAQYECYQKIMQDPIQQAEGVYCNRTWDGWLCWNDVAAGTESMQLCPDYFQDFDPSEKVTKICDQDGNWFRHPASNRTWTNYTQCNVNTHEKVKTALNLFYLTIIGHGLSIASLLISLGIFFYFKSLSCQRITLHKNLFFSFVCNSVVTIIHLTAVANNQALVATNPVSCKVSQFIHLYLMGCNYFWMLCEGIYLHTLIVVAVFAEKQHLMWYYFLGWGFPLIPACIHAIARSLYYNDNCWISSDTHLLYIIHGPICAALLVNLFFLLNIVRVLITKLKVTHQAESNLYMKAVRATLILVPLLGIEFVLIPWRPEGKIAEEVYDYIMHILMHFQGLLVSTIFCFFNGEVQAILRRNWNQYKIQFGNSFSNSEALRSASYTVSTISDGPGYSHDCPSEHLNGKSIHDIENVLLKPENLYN
T1 sequence (O60896 whole entry, chain 2 of 2, further chain): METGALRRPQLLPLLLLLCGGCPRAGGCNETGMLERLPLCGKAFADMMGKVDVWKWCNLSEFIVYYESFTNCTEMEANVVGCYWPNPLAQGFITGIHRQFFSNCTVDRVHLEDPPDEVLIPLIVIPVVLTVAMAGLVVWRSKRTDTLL

YRQSMNQGSRSNGCRFGTCTFQKLAHQIYQLTDKDKDGMAPRNKISPQGY-NH2 (ends and bridges not checked) [Murine ADM 1-50]
EC50 (read off the curve); cAMP, % activation [1]: ~0.08 nM

B1: human Adrenomedullin (mature ADM; amidated ADM; bio-ADM), amino acids 1-52 (peptide)
peptide: YRQSMNNFQGLRSFGCRFGTCTVQKLAHQIYQFTDKDKDNVAPRSKISPQGY-NH2
modifications: ends and bridges not checked
EC50 (read off the curve); cAMP, % activation [2]: ~1 nM
